Assay: label from the status in PepcDB records

| Sequence | protein production |
| --- | --- |
| MSPRDVLDSIFAFPPNRDTLGGTSYLIVGNEGNILIDCPALDQTNLNFLRSHGGVRWLFLTHRGAIGRTAEIQQNYGCDILIQEQEAYLLPGLTVTTFTQEFAVTPTAKAIWTPGHSPGSSCLYYNHQGGVLFSGRHLLPNQKGEPVPLRTAKTFHWPRQIKSLQTILETLTPETLQYICPGANTGFLRGKRSIDTAYQRLASLDLKALLQTQPLILEHHHHHH | not failed |
| MSPTRAQRLEGLERIAYCSDVKLFFLVSGSRMFLLLLMLFLRVALPHIYGTELLWDSGTLLYDDMNSTWSLLNFPRSWDGVHFFHVAKHGYSHENVCAFFPLVPFIVRTVSWLNDVLLPEFLTAVPVTFQVALLNVAMGGAAAVCLRRITILTLLSGSHGVDYTNKKDKAMSMTSGTWLDSLPLPPPYYRHEVTVKEHLNARLWKEVGATVLMWMLSPTAVFSVVLYTESVFSFATFLGVYMLIVSPQGKWRTAAAEAGAVLCFAVAGCARSNATTYIGFVLYPVFLQVFFFDTYRKRYAKRYGVTSPIRRWPSLARCVIVLIEVVIIITPYLGLNYLCYSRFVPLWDDMSRAAIGGRFWAFYGWMQKRYWNVGFLQSYRWGNAPNVLISAPIMFFTVRGFVLFIVQPALARSMETESNISKEYQEPRSDCREDRCGNKKQRLFSIYKLMENLVQSSNIICLLVILAFGATMAHVNVVNRLVMSSPALYWLWGRQFVCDPWGGNTVVMVRIFLLWNCIGALFVPNGLPWT | failed |
| MSQALPYRPDIDTLRAAAVLSVIVFHIEKDWLPGGFLGVDIFFVISGFLMTTILHREMSGGGGRFSLKAFYIRRIKRILPAFFAVLAATLAGGFFLFTKDDFFLLWKSALTALGFASNLYFARGKDYFDPAQEEKPLLHIWSLSVEEQFYFVFPILLLLVARKSLRVQFGFLAALCALSLAASFIPSALDKYYLPHLRACELLIGSLTAVWMRCRQPAVGRRCAAVGALFAVCILSTCLFSYSEQTAYFPGPAALIPCLAVAALIYFNHYEHPLKKFFQSKITVAAGLISYSLYLWHWPILAFMRYIGPDNLPPYSPAAAVVLILLLSLFSYHCIEKPFKKWQGSFAQSVLWIYALPMLILGAGSFFAMRLPFMAQYDRLGLTRSNTSCHNNTGKQCLWGDTEKQPELLVLGDSHADHYKTFFDAVGKKEKWSATMVSADACAYVEGYASRVFQNWAACRAVYRYAEEHLPRYSKVVLAMRWGSQMPENSRSLAYDAGFFQKFDRMLHKLSSEKQAVYLMADNLASSYNVQRAYILSSRIPGYRQALRPDDESTLKANARIRELAAKYPNVYIIDAAAYIPADFQIGGLPVYSDKDHINPYGGTELAKRFSEKQRFLDTRHNH | failed |
| MSQDGGQGRYAGRALAGGRYQLRDLLGEGGMASVHLAYDSVLDRQVAIKTLHTELGREQAFRERFRREAQAVAKLTHTNIVSVFDTGEDDLDGMTTPYIVMEYVEGRPLGSVLDEDVRQQGAMPADKALKITADVLAALEISHEMGLVHRDIKPGNVMMTKRGVVKVMDFGIARAMQSGVTSMTQTGMVVGTPQYLSPEQALGRGVDARSDLYSVGIMLFQLVTGRLPFDADSPLAIAYAHVQEQPVAPSAVNRALPPAVDALVARALKKNPNERFPSAEAMRDECLRVAASFQAAPPSIVPGAQTSSGAGVGSAVFPPVGQGTPAPTGPVQTPYQPTPSPGPNPYGTPAPAAHSPAYGYPQQAGYQTPAPAPYAQQQAAATPPPYNLTPSAQGSGSGSPGGKSNKPVIIGSIVVAVVAVGGLIGALLMNGGGDEDPEAGGGGSSTASVSASPSKAAGYRGPDKEKTIEKDKCTEPQESYNDPDKIQVPDFTFKYIGSVKECFNAAGWQMKVVEVDENTYGEGSVRDQFPTAGTDVDPENMPEIQLKVSTGNPPSE | failed |
| MSQDVSAQLQFRRSTMHWLRVARTAALALLLAPAVAPARAWLPPPGHVQMPLWPTVVPDALPHPRPESVGTGEGKRPWTKVGDVSRPTITFYAPKGQNTGAAAVVFPGGGYQVLAMDLEGTDICDWLSGRGITCVLLKYRVPNSGPTWTNGGRYYPKVQTALQDAQRALGLVRQHADDWGVDPHRVGVIGFSAGGHLVAAMSTHFTRRTYPSVDAADAQSCRPDFAIAVYPGHLWAHEDEDRAKRDPTHLPLRPDITVTADTPPTFLLQAEDDEVDGVSQSLAYYVALKQAGVPAEMHLYAEGGHAFGLRAGKLPIAQWPHLVETWLGTIGMLGTASAP | failed |
| MSQFTPHFTYRNVALALLVSTVLNGCATKGFRDADDQAERDIRTAEQLHGLSLKQPSSPSLVWVDEPWVNPRPIRVSARAQQVKLPPCSLTLIIDGSLSLYEVGQRITRSCGFPVVITPDAMSALSGSASQGGVGATRAIQGALPRPDEGGRPALGSIGGVTSTQSFSPNIGAGLITDISWEGEPLGGALDQITSRLGLNWKFENNQVVLYYLDTRTYRLKVLNAETAMNSNLTGTSSSTAGGDSSSVSGSQNSGQSTSVKLESKIHNDIGQSIKSMVSSSGSWHLSGSTGELVVTDVPQVLDRVESYIDSLNVRMNRMVKLMVSVYSVQRKGSSQTSLDWSVVGKRLDRFGLTLAGTPTATTAVSSAGINVVDGKFAGTTALFRALETQGKVSVVMAHEATTTNLVPAPFQIAGQMVYLRSQKTSVSENYATTDMEPGSITTGTQMTLLPDIRDEGDIQLQFNFSHSDPAQLRKESSKDGNTKMEMPYTTVRSLSERVNLKPGQTLIVSGYNSRNLTASREGAFDPDVTVAGGGKSSETDDVTLIIAVTPVLM | failed |
| MSQILTITFPIYAALAVGFLVVRQGWFSSADMRVLGRYVMDIALPALLFNAVASRDVAEVFHPGYMLAFAAAGLATVALSYLWFTLTGTEARRRAVAVMGSSCPNSGFVGYPVMLLTFPDLAGVILALNMLVENVLIIPACLILTDMARGRGQGGIGQRIAGILWGVLKRPMVIGLLLGLAVSLAGVPVPQTVTRLMQMLAASASALALVVIGGSLAGLSWKGSRWHAVQISALKLLLHPALALLAVILVAAIGLPLDPDMGTALILSAAMPMFGIYAVLAQELGHEGMASIALLTATTLAFFTLSGLLWWLT | failed |
| MSQKQEEENPAEETGEEKQDTQEKEGILPERAEEAKLKAKYPSLGQKPGGSDFLMKRLQKGQKYFDSGDYNMAKAKMKNKQLPSAGPDKNLVTGDHIPTPQDLPQRKSSLVTSKLAGGQVE | failed |
| MSQQKHADQDYALETVPSESKKGFLPMFAIMLGFTFFSASMWAGGTIGTGLKFQTFLLAVLMGNLLLGLYTGALAYIGSSTGLSTHLLARYSFGEKGSYLASFILAITQVGWFGVGVAMFSLPVHYATGIDLNILLLLSGILMTTTAYFGIKSLTVLSMISVPAITLLGIYSVTGAVNSIGGISELFAIEPANNLGLAVGLSLCIGSFISGGTLTPDFSRFSKSKSIGVISTFIAFFIGNSLMFIFGAVGASTLGQSDISEVMLKQGLIIPAIIILGLNIWTTNDNALYASGLGFSNITKIPKKHVVIFNGLIGTLGALVLYNNFVGWLTLLSSIIPSIGGIIISDYFINKRQKYASLENIKVKKVHWNAVIAWVLGVFASQFLPGISPINAVFGSAIIYIVLETLKKNNI | failed |
| MSQQNTELEGIGKLRSGSLFMILAVLLAAIGILVIISAGMLGGMFSAASGNVSGVIASGIGLLVGIAIVILIGAIIGLIGILRIRSGFGILKSLGRDVGIGEIGTTLYLVGLIIIIIGALLTIVLIGFPILILGEIIALIGGILIGIGFYKVGEIYNEGLVKIGGILIVIPIDLINFVGFILAYVGLGKVRPLPTVAQQPLVPQVYQVGQGTIRNNGYAYITLYSSTPASIISAKIEGANIMSSAINPTVLQIGNNEVTIFFGNVQSLAPNTTYIITLTINIGGNIINISTTAVYQP | failed |
| MSQTEPPEDLMQYEAMAQDALRGVVKAALKKAAAPGGLPEPHHLYITFKTKAAGVSGPQDLLSKYPDEMTIVLQHQYWDLAPGETFFSVTLKFGGQPKRLSVPYAALTRFYDPSVQFALQFSAPEIIEDEPEPDPEPEDKANQGASGDEGPKIVSLDQFRKKLEHHHHHH | not failed |
| MSQTKIEWADKVWNPVSGCTKISEGCQNCYAERMSKRLAGRCGYPAEEPFKVTPHPEKLGEPLKWRKPLRIFVNSMSDLFHADVPDKFIINVLSMIAEASHHTFLILTKRPERMRELLNHDTIANDVWLQTSRGVNAERSPWPLPNLWLGVSAENQAAADERIPILLQTPAAVRFVSVEPMLSEVNLSRYLKRPICKHWGRNGDPNIYGRYFWGKQALVGAGWVGIDWVICGGETGPGARPMHPVWVRDLRDQCRVAGTPFFFKSFGEYVRVGECMNEEDDEEFYSKSSAAGTNVQRLNLQGGMGYHGPKSIYMQRIGKKRAGRELDGRTWEEFPLEHHHHHH | failed |
| MSQTRDLQGGKAFGLLKAQQEERLDEINKQFLDDPKYSSDEDLPSKLEGFKEKYMEFDLNGNGDIDIMSLKRMLEKLGVPKTHLELKKLIGEVSSGSGETFSYPDFLRMMLGKRSAILKMILMYEEKAREKEKPTGPPAKKAISELP | failed |
| MSQVSIIIPTLNEAASLGRTLRQLTLLNPPAKEVIVVDGGSEDETIAIAKQNFESFRQATGVQVIFCERRGRSVQMNYGALSATGDILCFLHADTWVPDDLVAVIEKTLAETKVSCGGFISLMTGSQTTRWGISLHNYLKTYYAPLLFKPHLFFQGLRLLFGDQVMFCRRNDFWDCGGFNEELPIMEDGDLCLKLVQKGRIALVNRIVQSSDRRVARWGSWKATAIYLYIGVLWGIGVDANYLKQFYQDIRLEHHHHHH | not failed |
| MSQVSTEFIPTRIAILTVSNRRGEEDDTSGHYLRDSAQEAGHHVVDKAIVKENRYAIRAQVSAWIASDDVQVVLITGGTGLTEGDQAPEALLPLFDREVEGFGEVFRMLSFEEIGTSTLQSRAVAGVANKTLIFAMPGSTKACRTAWENIIAPQLDARTRPCNFHPHLKK | not failed |
| MSRAANKLTNTAIKNATTEGKAQRKLADGGGLTLVVKPESKVWWLRYRYDGKERTLTLGAYPQTSLKEARAKRDEAKQLLAEGIDPVTHRATHKTKRVEATANTFKAVATEWLKEVHQKAVVEEHYNRNVRRLEQHAFPKLGRRPISEIEPSDILEPLRDIAKTGRRETAKRVKTLIGQVFRYTVSTGRAQRDMTADIRGILPASETKHHAAVVKPDEIADLLKRIDTYWGTPTVCMALELSPLLFLRPGELRTMKWEQIDWDDATWTTERTKNGEPLVVPLARQSIELLSQIQEVNGKWEWVFPGGHSKTKPMSNNAIRTALTRLELHGIMSAHGFRAMARTVLTERLGFRA | failed |
| MSRADDVANLFQRFGASSDGYLETDNSLDYQESSVSSTPSVALQRATSQPSIEQPCAEQSAQNNAPAPDSITPDKTRRIAADTLAKLLAEAVQAREAEAQARNNEALAQSMGKEQLSRTPAHVIAVVSAKGGVGKSTLSAALTSLVKVPGGQTLAIDLDPQDALQHHLNASPDVAGLGGASLSGENWRALLLNGSADADTQLLAYGSLQLDERRSLERFQESDAHWLVRQIARMQLSARDVVILDVPCGDLLMLEQALNAASQVLVVLTADAACYLTLDQMQGWLEPVLAGPQPPVCHYVINQFDASRTFSRDMRDVMAKRLGGRLLGIVHKDNALAEALAYGHNAVQVPSASPGTQDLRVLSHLLITKLLTQDVEETRLS | failed |
| MSRARSLFPEMSDFFAGLPSWASIRPVFGDHIIRIEDEMKDGGYELRAEVPGIDPAKDIDITVRDGVLTIKAERTEKKETNGRSEFAYGSFMRSVTLPPGADEDAIKAGYDKGILTISVPVTEPEAAAEKRVAVETVSPLEHHHHHH | failed |
| MSRDRLYTWAGLWRSPSSSWEALRLEDDQAESQLRAPDERSGLPYQLDYRLRWDADWHLREAVFHVESETGVRKLHLLADGRGHWQDGDGEALPAFDGCLDIDIWPSPFTNTFPIRRLGLADGQRAEIRALYIEAPALEPRSMRQAYTRLDASHYLYENLEGSAFKAVLLVDEQGLVIDYPGLFQRL | not failed |

Source: a protein production outcome set (Wang et al. 2014)
